Results on four substances are retold here after PMC3445459.

Bounds are passed on as bounds.

One experiment addresses LEDGF/p75 (UniProt O75475). As to the kind of experiment: AlphaScreen or HTRF; IN-LEDGF/p75 interaction assay as previously described (ref. 32), mutant IN proteins in place of WT; signal relative to WT IN.
The target in experiment [1] is HIV-1 integrase E85F, 6xHis-tagged (HIV-1 (NL4-3)).
The target is the same in experiment [2]. The source holds these as a separate data set.
Experiment [3] concerns the target HIV-1 integrase K103E, 6xHis-tagged (HIV-1 (NL4-3)).
Experiment [4] concerns the target HIV-1 integrase W108F, 6xHis-tagged (HIV-1 (NL4-3)).

Chain of UniProt O75475 (O75475 whole entry): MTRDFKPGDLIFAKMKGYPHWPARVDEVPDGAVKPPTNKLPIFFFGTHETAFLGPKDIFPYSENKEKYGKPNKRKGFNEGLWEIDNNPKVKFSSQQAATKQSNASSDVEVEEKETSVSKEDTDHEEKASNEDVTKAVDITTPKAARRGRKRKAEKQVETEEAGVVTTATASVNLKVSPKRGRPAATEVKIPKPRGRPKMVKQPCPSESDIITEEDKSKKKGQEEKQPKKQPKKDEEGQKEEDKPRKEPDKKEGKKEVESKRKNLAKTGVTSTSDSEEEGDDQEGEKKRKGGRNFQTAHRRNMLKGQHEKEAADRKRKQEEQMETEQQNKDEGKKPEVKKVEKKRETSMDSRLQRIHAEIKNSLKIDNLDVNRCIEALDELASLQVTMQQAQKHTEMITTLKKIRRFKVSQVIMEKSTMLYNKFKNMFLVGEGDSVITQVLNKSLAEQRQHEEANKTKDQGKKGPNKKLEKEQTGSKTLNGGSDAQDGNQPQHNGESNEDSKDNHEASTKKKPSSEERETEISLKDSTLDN

In the case of “HIV-1 integrase K103G, 6xHis-tagged (enzyme)”, in the experiment with LEDGF/p75, the interaction relative to WT IN (of the WT interaction) is less than 0.33 and the percent of the WT interaction level was 30 % of WT. Turning to “HIV-1 integrase E85F, 6xHis-tagged (enzyme)”, in experiment [1], the in vitro strand transfer activity with 21-mer DNA substrate, relative to WT IN was 37 % of WT. Moreover, the in vitro strand transfer activity with pre-processed 19-mer DNA substrate, relative to WT IN in experiment [2] is 1.6 fold of WT. As to “HIV-1 integrase K103E, 6xHis-tagged (enzyme)”, the in vitro strand transfer activity with pre-processed 19-mer DNA substrate, relative to WT IN in experiment [3] was 29 % of WT. As for “HIV-1 integrase W108F, 6xHis-tagged (enzyme)”, the in vitro strand transfer activity with pre-processed 19-mer DNA substrate, relative to WT IN in experiment [4] is 30 % of WT.
